Reference: patent publication US8444970B2, “Compositions and methods for treating ocular diseases and conditions” (Lpath, Inc., priority 2006, dated 2013)

Assays:
[1] = test system: CNV lesions after laser-induced rupture of Bruch's membrane; test: Murine model of laser-induced CNV and scar formation (Example 4); type: in vivo, mouse; conditions: 0.5 ug
Protocol: Female C57BL6/J mice were subjected to laser-induced rupture of Bruch's membrane and administered either 0.5 μg of Sphingomab or an isotype-matched non-specific (NS) antibody diluted in 2 μl of physiological saline. Mice were sacrificed 14 and 28 days after laser rupture.
To induce CNV lesions, the pupils were dilated with ophthalmic tropicamide (0.5%) and phenylephrine (2.5%). A coverslip was placed on the eye. An Oculight GL 532 nm (Iridex Corporation, Mountain View, Calif.) coupled to a slit lamp set to deliver a 100 msec pulse at 150 mW with a 50 μm spot size was used to rupture Bruch's membrane in three quadrants of the right eye located approximately 50 μm from the optic disc at relative 9, 12 and 3 o'clock positions. The left eye served as an uninjured control in all cases. Any lesion not associated with a vapor bubble or lesions that became confluent were excluded from analysis. […]
To assess collagen deposition, the sclera-choroid-RPE complex was stained with Masson's Trichrome. […] Approximately 30 sections per lesion were evaluated. Quantitation of the volume of collagen deposition was calculated in the same manner as described for CNV lesion volume.
Captured digital images were evaluated morphometrically using ImageJ software (Research Services Branch, National Institutes of Health, Bethesda, Md.).

[2] = test system: endothelial cell (EC) infiltration into Matrigel plugs; test: In vivo Matrigel plug assay, S1P-supplemented plugs, EC infiltration; design: species or system mouse; conditions: systemic administration every 48 hrs from 1 day prior to implantation
Protocol: Based on in vivo studies showing that S1P increased endothelial capillary growth into subcutaneously implanted Matrigel plugs, we speculated that SPHINGOMAB could reduce de novo BV formation in vivo. To investigate this, we employed the in vivo Matrigel Plug assay for neovascularization. In one set of experiments, Matrigel was supplemented with either […], 0.5 μg/mL bFGF or 1 μg/mL VEGF and then injected […]. into mice (n=4). After 10 days, the mice were heparinized and injected with the fluorescent lectin, Isolectin B4-FITC, which binds to adhesion molecules expressed by vascular EC that form the growing BVs. The plugs were then excised, frozen in OCT, sectioned and viewed for FITC-stained BVs.
Sections of the plugs were then stained with hemotoxyln & eosin for evaluation of EC infiltration (FIG. 6B). The infiltration of ECs is a critical step in neo-vascularization. […] Cell infiltration is presumed to be ECs although we recognize that other cell types such as immune cells may also be stained.

[3] = test system: perivascular fibrosis; test: Permanent myocardial infarction model, cardiac scar formation (Masson's trichrome); type: in vivo, mouse; conditions: 25 mg/kg systemic, initiated 48 hrs after surgery
Protocol: Studies evaluated the efficacy of SPHINGOMAB to reduce cardiac scar formation after permanent myocardial infarction (MI) via ligation of the left descending coronary artery in mice. Systemic administration of 25 mg/kg SPHINGOMAB or saline was initiated 48 hrs after surgery. Antibody administration at 48 hr. was chosen to allow normal, reparative scar formation to occur during the early remodeling phase and permit beneficial, S1P-stimulated angiogenesis immediately after the MI. Two weeks after the infarct, mice were sacrificed and fibrosis was accessed by Masson's trichrome staining of the cardiac tissue. […] As a control for any non-specific wound-healing responses, sham animals underwent thoracotomy without coronary artery ligation (FIG. 7E).

[4] = test system: macrophage and mast cell infiltration; test: Murine infarct model, immune cell infiltration into the wound; type: in vivo, mouse; conditions: 25 mg/kg 48 hr after surgery, four days post-MI
Protocol: FIG. 9. […] SPHINGOMAB reduced immune-cell wound infiltration in vivo. Mice were subjected to MI, treated with saline or 25 mg/kg SPHINGOMAB 48 hr. after surgery and then sacrificed on day 4. SPHINGOMAB reduced macrophage (A) and mast cell (B) infiltration into the wound. Data are represented as fold decrease of saline-treated values.
Based upon the similarities of immune and inflammatory responses in CNV and CVD, the efficacy of SPHINGOMAB to mitigate immune cell infiltration into a wound was evaluated in a murine infarct model as an indication of SPHINGOMAB's potential effects in mitigating these damages during AMD [Vine, et al. (2005), Opthalmology., vol 112: 2076-80; and Seddon and Chen (2004), Int Opthalmol Clin., vol 44: 17-39]. Four days post-MI, macrophage and mast cell infiltration was evaluated using MAC-1 and MCG35 antibodies, respectively, within the area at risk.

[5] = test system: ovarian cancer (OVCAR3) cells; test: S1P-induced IL-8 release from ovarian cancer cells; type: cell-based; conditions: 1 uM S1P, 22 hours
Protocol: FIG. 12. FIG. 12 has two panels, A and B, that show data from in vitro cell assays performed using several humanized monoclonal antibody variants. […] As described in Example 16, below, SKOV3 cells were treated for 48 hr. with 500 nM Taxol (Tax) in the presence or absence of 500 nM S1P with huMAbHCLC3 (309), huMAbHCLC5 (308), muMAb S1P (muMAb), or non-specific IgG1 (NS) at a concentration of 1 μg/mL. Values represent means±SEM (n=3) with triplicates run for each data point. “NT” means not treated, and “Veh” stans for vehicle only. […] In the experiments described in detail in Example 16, below, 100,000 OVCAR3 cells/well were starved overnight and 1 uM S1P was added to the culture media alone or pre-incubated with 1 ug/ml of non-specific antibody (NS), pATH201+pATH309 (LC3), pATH201+pATH308 (LC5), pATH207+pATH309 (cysLC3), pATH207+pATH308 (cysLC5), and 0.1 ug/ml (M0.1), 1 ug/ml (M1) or 10 ug/ml (M10) of anti-S1P murine antibody. After 22 hours of incubation, cell supernatants were collected and IL-8 secretion was measured by ELISA using an R&D system Quantikine human CXCL8/IL-8 kit. In the figure “NT” refers to non-treated cells.
In parallel, all the variants were tested for their effects on S1P-induced cytokine release from cancer cells. S1P is known to elicit significant release of IL-8 into the cell-conditioned media from cancer cells.

B1: LT1002: murine anti-S1P monoclonal antibody, IgG1 kappa, hybridoma clone 306D326.26 (antibody, listed as Mus sp., V domains shown)
VH: QAHLQQSDAELVKPGASVKISCKVSGFIFIDHTIHWMKQRPEQGLEWIGCISPRHDITKYNEMFRGKATLTADKSSTTAYIQVNSLTFEDSAVYFCARGGFYGSTIWFDFWGQGTTLTVS
VL: ETTVTQSPASLSMAIGEKVTIRCITTTDIDDDMNWFQQKPGEPPNLLISEGNILRPGVPSRFSSSGYGTDFLFTIENMLSEDVADYYCLQSDNLPFTFGSGTKLEIK
- choroidal neovascularization ([1]; 14 and 28 days after laser-induced rupture of Bruch's membrane): dramatically attenuates
- fibrosis associated with CNV lesion formation ([1]; 28 days after laser-induced rupture): significantly reduces
- EC infiltration into S1P-containing Matrigel plugs [2]: reduced amount of EC infiltration
- perivascular fibrosis two weeks after infarct [3]: almost complete abrogation
- density of inflammatory macrophages [4]: dramatically attenuated
- density of mast cells [4]: dramatically attenuated
- IL-8 release [5]: reduced IL-8 release
